{
  "source": "patent US20220378923A1",
  "about": "“BET DEGRADER” (KYOWA KIRIN CO., LTD., priority 2019, published 2022)",
  "key": {"[1]": {"target": "DCAF16 with HaloTag added to the C-terminal (expressed from plasmid pFC27K_DCAF16) (human) (UniProt Q9NXF7)", "sequence (Q9NXF7 whole entry)": "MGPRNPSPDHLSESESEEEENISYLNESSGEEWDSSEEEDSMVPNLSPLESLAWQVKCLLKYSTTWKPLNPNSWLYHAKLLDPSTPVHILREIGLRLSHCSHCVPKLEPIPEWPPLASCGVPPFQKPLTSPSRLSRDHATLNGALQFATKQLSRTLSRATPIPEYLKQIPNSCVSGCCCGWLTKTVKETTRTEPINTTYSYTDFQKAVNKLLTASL", "assay": "NanoBRET in HEK293 cells, Nluc-BRD2 and DCAF16-HaloTag with 618 Ligand, bortezomib; DMSO control without test compound; mean of n=3"}, "[2]": {"target": "DCAF16 with HaloTag added to the C-terminal (expressed from plasmid pFC27K_DCAF16) (human) (UniProt Q9NXF7)", "assay": "NanoBRET in HEK293 cells, Nluc-BRD2 and DCAF16-HaloTag with 618 Ligand, MLN4924; DMSO control without test compound"}, "[3]": {"target": "DCAF16 with HaloTag added to the C-terminal (expressed from plasmid pFC27K_DCAF16) (human) (UniProt Q9NXF7)", "assay": "NanoBRET in HEK293 cells, Nluc-BRD2 and DCAF16-HaloTag with 618 Ligand, bortezomib; 10 umol/L compound 7o; mean of n=3"}, "[4]": {"target": "DCAF16 with HaloTag added to the C-terminal (expressed from plasmid pFC27K_DCAF16) (human) (UniProt Q9NXF7)", "assay": "NanoBRET in HEK293 cells, Nluc-BRD2 and DCAF16-HaloTag with 618 Ligand, MLN4924; 1.0 umol/L compound 15f"}, "[5]": {"target": "DCAF16 with HaloTag added to the C-terminal (expressed from plasmid pFC27K_DCAF16) (human) (UniProt Q9NXF7)", "assay": "NanoBRET in HEK293 cells, Nluc-BRD2 and DCAF16-HaloTag with 618 Ligand, MLN4924; 1.0 umol/L compound 12c"}, "[6]": {"target": "DCAF16 with HaloTag added to the C-terminal (expressed from plasmid pFC27K_DCAF16) (human) (UniProt Q9NXF7)", "assay": "NanoBRET in HEK293 cells, Nluc-BRD2 and DCAF16-HaloTag with 618 Ligand, MLN4924; 1.0 umol/L compound 1l"}, "[7]": {"target": "DCAF16 with HaloTag added to the C-terminal (expressed from plasmid pFC27K_DCAF16) (human) (UniProt Q9NXF7)", "assay": "NanoBRET in HEK293 cells, Nluc-BRD2 and DCAF16-HaloTag with 618 Ligand, bortezomib; 10 umol/L compound 1l; mean of n=3"}, "[8]": {"target": "DCAF16 with HaloTag added to the C-terminal (expressed from plasmid pFC27K_DCAF16) (human) (UniProt Q9NXF7)", "assay": "NanoBRET in HEK293 cells, Nluc-BRD2 and DCAF16-HaloTag with 618 Ligand, bortezomib; 10 umol/L compound 3a; mean of n=3"}, "[9]": {"target": "DCAF16 with HaloTag added to the C-terminal (expressed from plasmid pFC27K_DCAF16) (human) (UniProt Q9NXF7)", "assay": "NanoBRET in HEK293 cells, Nluc-BRD2 and DCAF16-HaloTag with 618 Ligand, bortezomib; 10 umol/L compound 12c; mean of n=3"}, "[10]": {"target": "DCAF16 with HaloTag added to the C-terminal (expressed from plasmid pFC27K_DCAF16) (human) (UniProt Q9NXF7)", "assay": "NanoBRET in HEK293 cells, Nluc-BRD2 and DCAF16-HaloTag with 618 Ligand, MLN4924; 1.0 umol/L compound 3e"}, "[11]": {"target": "DCAF16 with HaloTag added to the C-terminal (expressed from plasmid pFC27K_DCAF16) (human) (UniProt Q9NXF7)", "assay": "NanoBRET in HEK293 cells, Nluc-BRD2 and DCAF16-HaloTag with 618 Ligand, bortezomib; 10 umol/L compound 6k; mean of n=3"}, "[12]": {"target": "DCAF16 with HaloTag added to the C-terminal (expressed from plasmid pFC27K_DCAF16) (human) (UniProt Q9NXF7)", "assay": "NanoBRET in HEK293 cells, Nluc-BRD2 and DCAF16-HaloTag with 618 Ligand, bortezomib; 10 umol/L compound 8j; mean of n=3"}, "[13]": {"target": "DCAF16 with HaloTag added to the C-terminal (expressed from plasmid pFC27K_DCAF16) (human) (UniProt Q9NXF7)", "assay": "NanoBRET in HEK293 cells, Nluc-BRD2 and DCAF16-HaloTag with 618 Ligand, MLN4924; 1.0 umol/L compound 3b"}, "[14]": {"target": "DCAF16 with HaloTag added to the C-terminal (expressed from plasmid pFC27K_DCAF16) (human) (UniProt Q9NXF7)", "assay": "NanoBRET in HEK293 cells, Nluc-BRD2 and DCAF16-HaloTag with 618 Ligand, MLN4924; 1.0 umol/L compound 3a"}, "[15]": {"target": "DCAF16 with HaloTag added to the C-terminal (expressed from plasmid pFC27K_DCAF16) (human) (UniProt Q9NXF7)", "assay": "NanoBRET in HEK293 cells, Nluc-BRD2 and DCAF16-HaloTag with 618 Ligand, bortezomib; 10 umol/L compound 15f; mean of n=3"}, "[16]": {"target": "DCAF16 with HaloTag added to the C-terminal (expressed from plasmid pFC27K_DCAF16) (human) (UniProt Q9NXF7)", "assay": "NanoBRET in HEK293 cells, Nluc-BRD2 and DCAF16-HaloTag with 618 Ligand, MLN4924; 1.0 umol/L compound 8a"}, "[17]": {"target": "DCAF16 with HaloTag added to the C-terminal (expressed from plasmid pFC27K_DCAF16) (human) (UniProt Q9NXF7)", "assay": "NanoBRET in HEK293 cells, Nluc-BRD2 and DCAF16-HaloTag with 618 Ligand, MLN4924; 1.0 umol/L comparative compound 1 (compound P3, known bivalent BET inhibitor)"}, "[18]": {"target": "DCAF16 with HaloTag added to the C-terminal (expressed from plasmid pFC27K_DCAF16) (human) (UniProt Q9NXF7)", "assay": "NanoBRET in HEK293 cells, Nluc-BRD2 and DCAF16-HaloTag with 618 Ligand, bortezomib; 10 umol/L compound 1h; mean of n=3"}, "[19]": {"target": "DCAF16 with HaloTag added to the C-terminal (expressed from plasmid pFC27K_DCAF16) (human) (UniProt Q9NXF7)", "assay": "NanoBRET in HEK293 cells, Nluc-BRD2 and DCAF16-HaloTag with 618 Ligand, MLN4924; 1.0 umol/L compound 15a"}, "[20]": {"target": "DCAF16 with HaloTag added to the C-terminal (expressed from plasmid pFC27K_DCAF16) (human) (UniProt Q9NXF7)", "assay": "NanoBRET in HEK293 cells, Nluc-BRD2 and DCAF16-HaloTag with 618 Ligand, MLN4924; 1.0 umol/L compound 8j"}, "[21]": {"target": "DCAF16 with HaloTag added to the C-terminal (expressed from plasmid pFC27K_DCAF16) (human) (UniProt Q9NXF7)", "assay": "NanoBRET in HEK293 cells, Nluc-BRD2 and DCAF16-HaloTag with 618 Ligand, MLN4924; 1.0 umol/L compound 1h"}, "[22]": {"target": "DCAF16 with HaloTag added to the C-terminal (expressed from plasmid pFC27K_DCAF16) (human) (UniProt Q9NXF7)", "assay": "NanoBRET in HEK293 cells, Nluc-BRD2 and DCAF16-HaloTag with 618 Ligand, MLN4924; 1.0 umol/L compound 6k"}, "[23]": {"target": "DCAF16 with HaloTag added to the C-terminal (expressed from plasmid pFC27K_DCAF16) (human) (UniProt Q9NXF7)", "assay": "NanoBRET in HEK293 cells, Nluc-BRD2 and DCAF16-HaloTag with 618 Ligand, bortezomib; 10 umol/L compound 3b; mean of n=3"}, "[24]": {"target": "DCAF16 with HaloTag added to the C-terminal (expressed from plasmid pFC27K_DCAF16) (human) (UniProt Q9NXF7)", "assay": "NanoBRET in HEK293 cells, Nluc-BRD2 and DCAF16-HaloTag with 618 Ligand, bortezomib; 10 umol/L compound 8a; mean of n=3"}, "[25]": {"target": "DCAF16 with HaloTag added to the C-terminal (expressed from plasmid pFC27K_DCAF16) (human) (UniProt Q9NXF7)", "assay": "NanoBRET in HEK293 cells, Nluc-BRD2 and DCAF16-HaloTag with 618 Ligand, bortezomib; 10 umol/L compound 7p; mean of n=3"}, "[26]": {"target": "DCAF16 with HaloTag added to the C-terminal (expressed from plasmid pFC27K_DCAF16) (human) (UniProt Q9NXF7)", "assay": "NanoBRET in HEK293 cells, Nluc-BRD2 and DCAF16-HaloTag with 618 Ligand, MLN4924; 1.0 umol/L compound 7p"}, "[27]": {"target": "DCAF16 with HaloTag added to the C-terminal (expressed from plasmid pFC27K_DCAF16) (human) (UniProt Q9NXF7)", "assay": "NanoBRET in HEK293 cells, Nluc-BRD2 and DCAF16-HaloTag with 618 Ligand, MLN4924; 1.0 umol/L compound 7o"}, "[28]": {"target": "DCAF16 with HaloTag added to the C-terminal (expressed from plasmid pFC27K_DCAF16) (human) (UniProt Q9NXF7)", "assay": "NanoBRET in HEK293 cells, Nluc-BRD2 and DCAF16-HaloTag with 618 Ligand, bortezomib; 10 umol/L compound 3e; mean of n=3"}, "[29]": {"target": "DCAF16 with HaloTag added to the C-terminal (expressed from plasmid pFC27K_DCAF16) (human) (UniProt Q9NXF7)", "assay": "NanoBRET in HEK293 cells, Nluc-BRD2 and DCAF16-HaloTag with 618 Ligand, bortezomib; 10 umol/L compound 15a; mean of n=3"}},
  "data": [
    {"substance": "BRD2 with an Nluc tag added to the N-terminal (expressed from plasmid pFN31A_BRD2) (from UniProt P25440 1-801)", "values": [
      {"measurement": "BRET Ratio", "setting": "[1]", "value": 1.51},
      {"measurement": "BRET Ratio", "setting": "[2]", "value": 0.99},
      {"measurement": "BRET Ratio", "setting": "[3]", "value": 6.69},
      {"measurement": "BRET Ratio", "setting": "[4]", "value": 12.4},
      {"measurement": "BRET Ratio", "setting": "[5]", "value": 13.2},
      {"measurement": "BRET Ratio", "setting": "[6]", "value": 14.9},
      {"measurement": "BRET Ratio", "setting": "[7]", "value": 8.03},
      {"measurement": "BRET Ratio", "setting": "[8]", "value": 8.51},
      {"measurement": "BRET Ratio", "setting": "[9]", "value": 7.6},
      {"measurement": "BRET Ratio", "setting": "[10]", "value": 9.58},
      {"measurement": "BRET Ratio", "setting": "[11]", "value": 7.07},
      {"measurement": "BRET Ratio", "setting": "[12]", "value": 7.07},
      {"measurement": "BRET Ratio", "setting": "[13]", "value": 9.69},
      {"measurement": "BRET Ratio", "setting": "[14]", "value": 14.5},
      {"measurement": "BRET Ratio", "setting": "[15]", "value": 5.99},
      {"measurement": "BRET Ratio", "setting": "[16]", "value": 12.4},
      {"measurement": "BRET Ratio", "setting": "[17]", "value": 1.93},
      {"measurement": "BRET Ratio", "setting": "[18]", "value": 6.84},
      {"measurement": "BRET Ratio", "setting": "[19]", "value": 9.59},
      {"measurement": "BRET Ratio", "setting": "[20]", "value": 11.9},
      {"measurement": "BRET Ratio", "setting": "[21]", "value": 10.9},
      {"measurement": "BRET Ratio", "setting": "[22]", "value": 12.6},
      {"measurement": "BRET Ratio", "setting": "[23]", "value": 6.06},
      {"measurement": "BRET Ratio", "setting": "[24]", "value": 7.27},
      {"measurement": "BRET Ratio", "setting": "[25]", "value": 6.8},
      {"measurement": "BRET Ratio", "setting": "[26]", "value": 11.6},
      {"measurement": "BRET Ratio", "setting": "[27]", "value": 13},
      {"measurement": "BRET Ratio", "setting": "[28]", "value": 5.96},
      {"measurement": "BRET Ratio", "setting": "[29]", "value": 5.88}
    ]}
  ]
}
